Data set [1] deals with T1, CRP WT (CRPMtb) (Mycobacterium tuberculosis (strain for …, UniProt P9WMH3 1-224)).
T1 sequence: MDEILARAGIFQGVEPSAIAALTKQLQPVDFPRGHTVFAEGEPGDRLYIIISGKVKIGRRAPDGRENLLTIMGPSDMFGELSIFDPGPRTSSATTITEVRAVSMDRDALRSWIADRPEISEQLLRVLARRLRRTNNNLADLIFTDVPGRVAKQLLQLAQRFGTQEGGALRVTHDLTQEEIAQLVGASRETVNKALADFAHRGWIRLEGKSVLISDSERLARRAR
Description: competition. Particulars: protein: recombinant; tags: His tag (Ni2+ purified; pET28a); chain copies: 2; blunt.

In data set [2] the target is T1, CRP WT (CRPMtb). Description: EMSA; no cAMP; 5 and 15 uM protein. Particulars: protein: recombinant; tags: His tag (Ni2+ purified; pET28a); chain copies: 2; blunt. For orientation: A gel shift assay detects complexes by their altered migration in electrophoresis.

Data on 2 molecules can be found in article PMC9927398.

B1: 2D3 unlabeled competitor (dsDNA)
DNA 1: CTCTATGTGACGAAGCCCACATCGAC
DNA 2: GTCGATGTGGGCTTCGTCACATAGAG
As to B1, the binding result in data set [1] is “binds”.

B2: 2D3 (dsDNA)
DNA 1: CTCTATGTGACGAAGCCCACATCGAC
DNA 2: GTCGATGTGGGCTTCGTCACATAGAG
In the case of B2, the binding result in data set [2] is “binds”.
